The text below walks through data of publication PMC10238420, “Altered Signaling and Desensitization Responses in PTH1R Mutants Associated with Eiken Syndrome” (Communications Biology, 2023).

Assay [1] has as its target human PTH1R-WT with an HA tag (parathyroid hormone receptor type 1) (human) (UniProt Q03431).
For assay [2], the target named is PTH1R-R485X (human PTH1R with an HA tag, C-terminal tail truncated at R485) (human) (UniProt Q03431).
Assay [3] addresses PTH1R-E35K (human PTH1R with an HA tag) (human) (UniProt Q03431). The assay can be described thus: radioligand binding; total binding of ^125I-PTHrP(1-36) (20,000-30,000 cpm/well) to confluent monolayers of intact, transiently transfected Gs22a cells in 96-well plates; HB (Hanks balanced salt solution, 10 mM HEPES pH 7.4, 0.1% BSA); one hour at room temperature.
Assay [4] addresses PTH1R-Y134S (human PTH1R with an HA tag) (human) (UniProt Q03431). The assay is described as above.

Chain of β-arrestin2-renilla luciferase (rLucII) (P32121 whole entry): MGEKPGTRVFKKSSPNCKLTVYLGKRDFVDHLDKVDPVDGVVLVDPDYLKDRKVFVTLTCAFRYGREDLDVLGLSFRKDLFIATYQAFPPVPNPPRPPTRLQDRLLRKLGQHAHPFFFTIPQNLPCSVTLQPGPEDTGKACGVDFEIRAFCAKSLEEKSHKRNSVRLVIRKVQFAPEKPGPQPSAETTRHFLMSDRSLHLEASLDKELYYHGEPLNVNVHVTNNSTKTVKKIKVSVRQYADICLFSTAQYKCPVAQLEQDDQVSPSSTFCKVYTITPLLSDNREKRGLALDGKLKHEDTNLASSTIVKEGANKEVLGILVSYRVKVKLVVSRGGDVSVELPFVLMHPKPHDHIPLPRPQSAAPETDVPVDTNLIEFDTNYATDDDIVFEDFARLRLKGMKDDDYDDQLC
Chain of ^125I-PTHrP(1-36) (peptide) (P12272 37-72): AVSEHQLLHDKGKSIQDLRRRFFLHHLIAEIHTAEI

Take “β-arrestin2-renilla luciferase (rLucII) (from UniProt P32121 1-409) (natural protein)”: in assay [1], the PTH(1-34)-induced recruitment of β-arrestin2^rLucII to endosomes (BRET with rGFP-FYVE), fold-BRET increase from baseline came out at 6.08 fold and the PTH(1-34)-induced recruitment of β-arrestin2^rLucII to the plasma membrane (BRET with rGFP-CAAX), fold-BRET increase from baseline was 4.79 fold. In assay [2], this substance came in with a PTH(1-34)-induced recruitment of β-arrestin2^rLucII to endosomes (BRET with rGFP-FYVE), fold-BRET increase from baseline of 1.33 fold and a PTH(1-34)-induced recruitment of β-arrestin2^rLucII to the plasma membrane (BRET with rGFP-CAAX), fold-BRET increase from baseline of 2.69 fold.
As to ^125I-PTHrP(1-36) (peptide), the reduction of total binding relative to PTH1R-WT in assay [3] and in assay [4] was 50% each time.
